Test results reported in patent US20090246142A1 (published 2009).
Square brackets hold non-standard residues; d marks the D form. pY = N[C@@H](Cc1ccc(OP(=O)(O)O)cc1)C(=O)O; Ahx = NCCCCCC(=O)O

B1: TAMRA-(Ahx)SRVGEEEHVFSFPNKQKSAEC-CONH2 (Abl substrate with the tyrosine replaced by phenylalanine) on nanoparticles (F-Abl TSACs) (peptide)
peptide: {TAMRA-Ahx}-SRVGEEEHVFSFPNKQKSAEC-NH2
modifications: not fully specified (residue 21); printed as TAMRA-(Ahx)SRVGEEEHVFSFPNKQKSAEC-CONH2; also: Cys conjugated to nanoparticle via NHS-PEO12-maleimide
notes: also called phenylalanine-Abl substrate TSACs; phenylalanine substrate TSACs
B2: TAMRA-(Ahx)EAIpYAAPFAKKKC-CONH2 (non-binding Abl substrate, phosphorylated) on nanoparticles (peptide)
peptide: {TAMRA-Ahx}-EAI[pY]AAPFAKKKC-NH2
modifications: not fully specified (residue 13); also: Cys conjugated to nanoparticle via NHS-PEO12-maleimide

What was measured:
[1] = target: T1, Crk SH2 domain with an N-terminal cysteine (cys-SH2), conjugated to iron oxide nanoparticles (SH2 TSACs) (UniProt P46108 13-118, limits assumed, N-terminal cysteine added by genetic modification and conjugated to aminated nanoparticles through NHS-PEO12-maleimide); assay: DLS of nanoparticle assembly in the presence of Abl kinase
T1 construct: domain: SH2 domain; also called cysteine-SH2; Crk-SH2 TSACs

[2] = target: T1, Crk SH2 domain with an N-terminal …; assay: DLS of nanoparticle assembly

T1 sequence (P46108 13-118 limits assumed): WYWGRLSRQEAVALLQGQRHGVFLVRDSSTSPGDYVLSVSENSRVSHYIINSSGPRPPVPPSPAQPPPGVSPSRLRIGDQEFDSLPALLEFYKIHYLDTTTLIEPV

Binder	binding result [1]	binding result [2]
B1	no binding (tested: 10 µg Fe/ml (12 nM TSAC concentration))	
B2		no binding (tested: 10 µg Fe/ml (12 nM TSAC concentration))
